# T1: CrFBPase (Chlamydomonas reinhardtii, UniProt A8IKQ0)
# T1 construct: gene CHLRE_12g510650v5; recombinant, N-terminal poly-histidine tag, pET plasmid, E. coli BL21(DE3), Ni-NTA purified
# T1 sequence (A8IKQ0 29-415): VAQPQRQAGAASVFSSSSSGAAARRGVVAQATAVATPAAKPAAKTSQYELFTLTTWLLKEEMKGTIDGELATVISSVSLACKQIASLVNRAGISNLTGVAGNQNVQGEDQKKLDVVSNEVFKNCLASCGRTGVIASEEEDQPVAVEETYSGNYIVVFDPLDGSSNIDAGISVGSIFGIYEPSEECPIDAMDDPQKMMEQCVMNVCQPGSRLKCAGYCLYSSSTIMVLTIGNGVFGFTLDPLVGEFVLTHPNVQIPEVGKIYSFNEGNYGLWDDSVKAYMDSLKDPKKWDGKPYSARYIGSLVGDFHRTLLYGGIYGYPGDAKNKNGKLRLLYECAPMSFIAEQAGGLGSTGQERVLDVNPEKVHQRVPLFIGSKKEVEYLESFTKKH
# B1: Chlamydomonas reinhardtii thioredoxin h1 (CrTRXh1) (enzyme)
# chain: MGGSVIVIDSKAAWDAQLAKGKEEHKPIVVDFTATWCGPCKMIAPLFETLSNDYAGKVIFLKVDVDAVAAVAEAAGITAMPTFHVYKDGVKADDLVGASQDKLKALVAKHAAA
# What was measured:
# CrFBPase = biological target: T1, CrFBPase; experiment: coupled spectrophotometric assay of FBP hydrolysis (NADP+ reduction at […] nm); type: biochemical; details: 0.6 mM FBP, 10 mM MgCl2, 30 mM Tris pH 7.9, 20 °C; FBPase pre-incubated with 1 mM DTT, with or without 50 µM thioredoxin
# [1] = biological target: Chlamydomonas reinhardtii fructose-1,6-bisphosphatase (CrFBPase) (Chlamydomonas reinhardtii)
molecule,measurement,setting,value
O=P(O)(O)OC[C@H]1OC(O)(COP(=O)(O)O)[C@@H](O)[C@@H]1O (stereo partly shown) [FBP],coupled spectrophotometric assay of FBP hydrolysis (NADP+ reduction at 340 nm),CrFBPase,The activity of FBPase was determined in the direction of FBP hydrolysis
Chlamydomonas reinhardtii thioredoxin f2 (CrTRXf2) (enzyme),"FBPase activity (coupled spectrophotometric assay, NADP+ reduction at 340 nm, initial velocity) after 5 min pre-incubation with 1 mM DTT and 50 µM TRXf2, 20°C, n=4",[1],106 ΔAbs/min
same,fold increase of FBPase activity after pre-incubation with 1 mM DTT and 50 µM TRXf2,[1],6 fold
"TRXχ1 (chimera 1; TRXh1-K49,K69,K70,K78,K99) (from UniProt P80028 1-113) (enzyme)","FBPase activity (coupled spectrophotometric assay, NADP+ reduction at 340 nm, initial velocity) after 5 min pre-incubation with 1 mM DTT and 50 µM TRXχ1, 20°C, n=4",[1],172 ΔAbs/min
same,fold increase of FBPase activity after pre-incubation with 1 mM DTT and 50 µM TRXχ1,[1],9.8 fold
B1,"FBPase activity (coupled spectrophotometric assay, NADP+ reduction at 340 nm, initial velocity) after 5 min pre-incubation with 1 mM DTT and 50 µM TRXh1, 20°C, n=4",[1],59 ΔAbs/min
same,fold increase of FBPase activity after pre-incubation with 1 mM DTT and 50 µM TRXh1,[1],3.4 fold

# — article PMC11922929, “Functional recoding of Chlamydomonas reinhardtii thioredoxin type-h into photosynthetic type-f by switching selectivity determinants” (Frontiers in Plant Science, 2025)
